Literature values in publication PMC4216181 (Journal of nuclear medicine : official publication, Society …, 2009).

Molecular target: HER2 (Homo sapiens, UniProt P04626)
Conditions: read-out: dissociation constant [KD]; HER2, nonmodified 2-helix protein; cited from earlier work

[homoC]NKEMRNRYWEAALDPNLNNQQK-RAKIRSIYDDP[homoC]-NH2 (disulfide) [MUT-DS]
Kd: 5 nM
